# Measured values reported in patent US7291332B2, “Inflammatory mediator antagonists” (SmithKline Beecham Corporation, priority 1998, dated 2007).
# Where a chain is given by its changes, count along the chain named. Names and notes keep the numbering of the source. “Also recorded” adds a separate entry of the source.
# B1: (13) Q20A: OSM-GST fusion, alanine for Gln 20 (protein)
# chain: AAIGSCSKEYRVLLGQLQKATDLMQDTSRLLDPYIRIQGLDVPKLREHCRERPGAFPSEETLRGLGRRGFLQTLNATLGCVLHRLADLEQRLPKAQDLERSGLNIEDLEKLQMARPNILGLRNNIYCMAQLLDNSDTAEPTKAGRGASQPPTPTPASDAFQRKLEGCRFLHGYHRFMHSVGRVFSKWGESPNRSRR
# modifications: left off: a dimerising Fc or GST; large carriers; small tags and cut ends
# B2: (27) D26A: OSM-GST fusion, alanine for Asp 26 (protein)
# chain: B1 chain with A20Q, D26A
# modifications: left off: a dimerising Fc or GST; large carriers; small tags and cut ends
# B3: (9) Q16A: OSM-GST fusion, alanine for Gln 16 (protein)
# chain: B1 chain with Q16A, A20Q
# modifications: left off: a dimerising Fc or GST; large carriers; small tags and cut ends
# B4: (1) S7A: OSM-GST fusion, alanine for Ser 7 (protein)
# chain: B1 chain with S7A, A20Q
# modifications: left off: a dimerising Fc or GST; large carriers; small tags and cut ends
# B5: (26) Q25A: OSM-GST fusion, alanine for Gln 25 (protein)
# chain: B1 chain with A20Q, Q25A
# modifications: left off: a dimerising Fc or GST; large carriers; small tags and cut ends
# B6: (25) Y130A: OSM-GST fusion, alanine for Gln 130 (protein)
# chain: B1 chain with A20Q, Q130A
# modifications: left off: a dimerising Fc or GST; large carriers; small tags and cut ends
# B7: (6) L13A: OSM-GST fusion, alanine for Leu 13 (protein)
# chain: B1 chain with L13A, A20Q
# B8: (20) G120A: OSM-GST fusion, alanine for Gly 120 (protein)
# chain: B1 chain with A20Q, G120A
# modifications: left off: a dimerising Fc or GST; large carriers; small tags and cut ends
# B9: (23) N124A: OSM-GST fusion, alanine for Asn 124 (protein)
# chain: B1 chain with A20Q, N124A
# modifications: left off: a dimerising Fc or GST; large carriers; small tags and cut ends
# B10: (3) E9A: OSM-GST fusion, alanine for Glu 9 (protein)
# chain: B1 chain with E9A, A20Q
# modifications: left off: a dimerising Fc or GST; large carriers; small tags and cut ends
# B11: (22) N123A: OSM-GST fusion, alanine for Asn 123 (protein)
# chain: B1 chain with A20Q, N123A
# modifications: left off: a dimerising Fc or GST; large carriers; small tags and cut ends
# B12: (2) K8A: OSM-GST fusion, alanine for Lys 8 (protein)
# chain: B1 chain with K8A, A20Q
# modifications: left off: a dimerising Fc or GST; large carriers; small tags and cut ends
# What was measured:
# [1] = biological target: T1, gp130-Fc (Homo sapiens, UniProt P40189); experiment: Competition of OSM-GST with plate-bound wild type OSM for binding to gp130-Fc (ELISA); details: for inhibition: at the maximum concentration tested (10 μg/ml)
# T1 construct: DNA encoding the extracellular domain of human gp130 was amplified; made in house; host or cells: insect cells (Bac-to-Bac baculovirus) for gp130-Fc; E. coli BLR-DE3 for OSM
# T1 sequence (P40189 23-619 limits assumed): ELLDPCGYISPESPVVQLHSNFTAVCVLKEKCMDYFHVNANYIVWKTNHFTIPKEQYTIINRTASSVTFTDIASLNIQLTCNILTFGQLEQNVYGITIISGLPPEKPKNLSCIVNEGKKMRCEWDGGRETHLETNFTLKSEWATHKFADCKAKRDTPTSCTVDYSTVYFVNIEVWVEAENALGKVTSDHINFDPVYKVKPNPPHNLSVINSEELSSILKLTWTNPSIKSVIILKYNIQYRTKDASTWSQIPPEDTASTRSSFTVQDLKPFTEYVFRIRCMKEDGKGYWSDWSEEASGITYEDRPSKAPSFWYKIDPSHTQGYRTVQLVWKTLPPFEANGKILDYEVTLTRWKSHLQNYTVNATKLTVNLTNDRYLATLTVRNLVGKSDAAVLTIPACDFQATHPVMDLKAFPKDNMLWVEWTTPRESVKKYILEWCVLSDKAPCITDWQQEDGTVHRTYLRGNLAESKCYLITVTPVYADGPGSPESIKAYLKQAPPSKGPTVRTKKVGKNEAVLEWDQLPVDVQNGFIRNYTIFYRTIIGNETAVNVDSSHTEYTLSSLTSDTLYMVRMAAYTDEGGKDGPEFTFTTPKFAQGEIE
# Procedure: Nunc Immunoplates (F6 Maxisorp, Life Technologies) were coated overnight (4° C.) with wild type OSM (produced according to Example 7a); 50 μl/well, 1 μg/ml in carbonate/bicarbonate buffer pH 9.4). Plates were washed (×6 in PBS 0.05% tween 20, using Skatron Plate washer), tapped dry and blocked to reduce non-specific binding (200 μl/well, 1% BSA/PBS). Following 1 h incubation (room temperature on a shaking platform) the plates were tapped dry and wild type (wt) or mutant OSM-GST from Example 9b added (50 μl/well, 20-0.002 μg/ml, titrated in 1%BSA/PBS). As a positive control polyclonal anti-human OSM antibody (R&D Systems) was also tested (20-0.02 μg/ml). A complex of gp130-Fc (Produced as below 300 ng/ml) and anti-human IgG alkaline phosphatase conjugate (1:500, Sigma) in 1% BSA/PBS (50 μl/well) was added immediately after the agents under test. Following a 5 h incubation (room temperature on a shaking platform) the plates were washed (×6) and developed using ELISA Amplification System (Life Technologies) as manufacturer's instructions and the OD measured at 490 nm. On each plate the total binding was determined by gp130-Fc/conjugate and OSM in the presence of 1% BSA/PBS, and non-specific binding by gp130-Fc/conjugate in absence of OSM, or conjugate binding to OSM in absence of gp130-Fc.
# Mutant and wt OSM-GST were tested to obtain IC50 in 3-6 experiments. The mean OD in the presence of OSM and gp130-Fc in the absence of competing ligand (i.e., total binding) was 1.157 (range 0.825-1.807) and the non specific binding was less than 0.08.
# [2] = tested on: HepG2 B6 cells (STAT-sPAP reporter); experiment: OSM-GST mutant driven sPAP production in HepG2 B6 assay; format: cell-based, human; details: for 'Potency': relative to wild type, from Mean %
# Procedure: HepG2 B6 cells were plated into 96 well plates to a final concentration of 3×10^4 cells per well in 100 μl of media (DMEM (Sigma), 10% HI FCS, 1% non-essential amino acids, 2 mM Glutamine, 500 μg ml^−1 G418, (all from Life Technologies)). Cells were allowed to equilibrate for 48 hours. Putative anti-OSM solid compounds were made up to a stock dilution of 20 mM in DMSO and serially diluted 1:3 in DMSO. This was then further diluted in HepG26B assay media, this is as above media but with 1% heat inactivated FCS, low alkaline phosphatase activity (Life Technologies) substituted for 10% HI FCS. Compounds were diluted 1:3 from a top concentration of […] to a final concentration of 0.09 μM in a final concentration of 1% DMSO. (That is 200, 66.67, 22.22, 7.41, 2.47, 0.82, 0.27, 0.09 and 0 μM). The old media was removed from the wells and replaced with diluted compound also containing 2 ng ml^−1 OSM (R&D Systems), cells were incubated for a further 20 hours. Each dilution was performed in triplicate. 20 μl of media was removed from each well and assayed for sPAP activity using pNPP (p-Nitrophenyl phosphate; Sigma), as a substrate. Endogenous alkaline phosphatase is blocked with L-homoarginine. Optical density of substrate is read at 405-650 nm. Concentration of compound is plotted against OD as a measure of sPAP produced and can be analysed to determine IC50 values.
# The assay described in Example 7b above was employed. OSM-GST mutants were diluted to a concentration of 100 ng ml^−using the known concentration of intact OSM mutants generated in Example 9b. A wild type OSM-GST was included for control purposes. Dilutions were made in HepG2 B6 media with 1% heat inactivated FCS, low alkaline phosphatase activity. Serial 1:3 dilutions were then made. (100; 33.33; 11.11; 3.7; 1.23; 0.4 ng ml^−1). 3×10^4 HepG2 B6 were dispensed into individual well of a 96 well plate in 100 μl of media. Cells were allowed to equilibrate for 48 hours. Media was then removed and replaced with 100 μl of diluted OSM-GST mutant. Cells were incubated for a further 20 hours. Each dilution was performed in triplicate. 20 μl of media was removed and assayed for sPAP using pNPP as a substrate. Endogenous ALP was blocked with L-homoarginine. O.D. was read at 405-650 nm. The experiment was repeated twice.
molecule,measurement,setting,value
B1,ability to compete with wt OSM for gp130 binding,[1],substantial decrease
same,inhibition,[1],66±2.3%
same,driving sPAP production,[2],less effective at driving sPAP production; also recorded: didn't drive sPAP at all
same,'Potency',[2],NONE
B2,Expt 1 EC50,[2],0.0195 µg/mL
same,Expt 2 EC50,[2],0.0255 µg/mL
same,'Potency',[2],EQUAL (80-120% Equal potency)
B3,ability to compete with wt OSM for gp130 binding,[1],substantial decrease
same,inhibition,[1],15±8%
same,driving sPAP production,[2],less effective at driving sPAP production; also recorded: didn't drive sPAP at all
same,'Potency',[2],NONE
B4,Expt 1 EC50,[2],0.012 µg/mL
same,Expt 2 EC50,[2],0.0222 µg/mL
same,'Potency',[2],MORE (<80% More potent)
B5,Expt 1 EC50,[2],0.0133 µg/mL
same,Expt 2 EC50,[2],0.013 µg/mL
same,'Potency',[2],MORE (<80% More potent)
B6,Expt 1 EC50,[2],0.0125 µg/mL
same,Expt 2 EC50,[2],0.0082 µg/mL
same,'Potency',[2],MORE (<80% More potent)
B7,ability to compete with wt OSM for gp130 binding,[1],substantial decrease
same,Expt 1 EC50,[2],0.0657 µg/mL
same,Expt 2 EC50,[2],0.0549 µg/mL
same,'Potency',[2],LESS (>120% Less potent than wild type)
B8,ability to compete with wt OSM for gp130 binding,[1],substantial decrease
same,driving sPAP production,[2],less effective at driving sPAP production; also recorded: didn't drive sPAP at all
same,'Potency',[2],NONE
B9,ability to compete with wt OSM for gp130 binding,[1],substantial decrease
same,Expt 1 EC50,[2],0.0302 µg/mL
same,Expt 2 EC50,[2],0.0362 µg/mL
same,'Potency',[2],EQUAL (80-120% Equal potency)
B10,Expt 1 EC50,[2],0.0236 µg/mL
same,Expt 2 EC50,[2],0.0089 µg/mL
same,'Potency',[2],MORE (<80% More potent)
B11,ability to compete with wt OSM for gp130 binding,[1],substantial decrease
same,Expt 1 EC50,[2],0.0379 µg/mL
same,Expt 2 EC50,[2],0.0497 µg/mL
same,'Potency',[2],LESS (>120% Less potent than wild type)
B12,Expt 1 EC50,[2],0.016 µg/mL
same,Expt 2 EC50,[2],0.0125 µg/mL
same,'Potency',[2],MORE (<80% More potent)
